Laboratory results published in patent US20260139065A1 (Novartis, published 2026).

Target: T1, BAFF-R (B-cell activating factor receptor) (human, UniProt Q96RJ3 1-78, limits assumed)
T1 construct: also called BAFF receptor; BR3
T1 sequence (looked up): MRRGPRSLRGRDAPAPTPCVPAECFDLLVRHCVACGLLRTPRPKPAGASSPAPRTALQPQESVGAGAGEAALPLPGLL
Experiment: in vitro experiments (method not given); used as a parameter of the tissue receptor occupancy model

Kd: 46 pM
B1: ianalumab (antibody, human IgG1, kappa, V domains shown)
VH: QVQLQQSGPGLVKPSQTLSLTCAISGDSVSSNSAAWGWIRQSPGRGLEWLGRIYYRSKWYNSYAVSVKSRITINPDTSKNQFSLQLNSVTPEDTAVYYCARYDWVPKIGVFDSWGQGTLVTVSS
VL: DIVLTQSPATLSLSPGERATLSCRASQFISSSYLSWYQQKPGQAPRLLIYGSSSRATGVPARFSGSGSGTDFTLTISSLEPEDFAVYYCQQLYSSPMTFGQGTKVEIKR
notes: also called VAY736; anti-BAFF-R antibody
